Experiment [1] addresses T1, human serum albumin (human, UniProt P02768 25-609).
T1 construct: Immobilised on SPR chips; also added in solution to the cell assays; also called HSA; humanSA
The experiment can be described thus: SPR, pH 7.4. A general note: Surface plasmon resonance follows binding to a sensor surface in real time, without labels.

Experiment [2] concerns the target T1, human serum albumin. Kind of experiment: SPR, pH 5.5.
Experiment [3] addresses T1, human serum albumin. Kind of experiment: SPR, Langmuir 1:1 or steady state model, pH 5.5.
Experiment [4] deals with T1, human serum albumin. Kind of experiment: SPR, Langmuir 1:1 or steady state model, pH 7.4.
Experiment [5] addresses T2, FcRn-L322A/L323A expressed in HEK293 cells (UniProt P55899 24-365). Kind of experiment: cell FcRn occupancy, flow cytometry, free FcRn stained with anti-FcRn-Fab AF647, HEK293-FcRn-L322A/L323A cells, without HSA. In general terms: A flow cytometer gives signals particle by particle.
The target in experiment [6] is T1, human serum albumin. The experiment can be described thus: SPR, pH 5.5; pH 5.5.
For experiment [7], the target named is T2, FcRn-L322A/L323A expressed in HEK293 …. The experiment can be described thus: cell FcRn occupancy, flow cytometry, free FcRn stained with anti-FcRn-Fab AF647, HEK293-FcRn-L322A/L323A cells, with HSA.
Experiment [8] concerns the target T3, neonatal Fc receptor (FcRn), endogenous in U937 cells (UniProt P55899 24-365; P61769 21-119).
T3 construct: whole, on cells; Free FcRn was stained inside fixed and permeabilised cells
Kind of experiment: cell FcRn occupancy, flow cytometry, free FcRn stained with labelled anti-FcRn Fab, U937 cells, 2,500 nM HSA (SD 1.4).
Procedure: (§1) Next, FcRn occupancy was tested using a cell-based FcRn occupancy assay in the presence or absence of albumin. Briefly, test articles (Fc-ABDEG-VHH molecules) were pre-incubated with HSA for 30 minutes at 37° C., pH 7.4 in FACS buffer. Cells (HEK FcRn mut or U937) were plated in a 96-well microplate. Cells were incubated with test article for two hours, shaking at 37° C., pH 7.4 in FACS buffer. Plates were then transferred immediately on ice and cells were collected by centrifugation at 4° C. Cells stained for viability in FACS buffer at pH 6 and then fixed/permeabilized in permeabilization buffer at pH 6. […] Cells were analyzed by FACS, ensuring that they are kept on ice until immediately prior to analysis.

Experiment [9] addresses T3, neonatal Fc receptor (FcRn), endogenous …. The experiment can be described thus: cell FcRn occupancy, flow cytometry, free FcRn stained with anti-FcRn-Fab AF647, U937 cells, with HSA.
Procedure: as §1
Experiment [10] deals with T1, human serum albumin. The experiment can be described thus: not stated there (refers to the earlier SPR).
Experiment [11] addresses T1, human serum albumin. Kind of experiment: SPR Biacore 3000, HSA on chip, pH 5.5.
The target of experiment [12] is T1, human serum albumin. Kind of experiment: SPR Biacore 3000, HSA on chip, ratio of R0 at pH 5.5 to pH 7.4.
Experiment [13] deals with T1, human serum albumin. Kind of experiment: SPR Biacore 3000, HSA on chip, pH 7.4.

T2 sequence (P55899 24-365 L343A/L344A, chain 1 of 2): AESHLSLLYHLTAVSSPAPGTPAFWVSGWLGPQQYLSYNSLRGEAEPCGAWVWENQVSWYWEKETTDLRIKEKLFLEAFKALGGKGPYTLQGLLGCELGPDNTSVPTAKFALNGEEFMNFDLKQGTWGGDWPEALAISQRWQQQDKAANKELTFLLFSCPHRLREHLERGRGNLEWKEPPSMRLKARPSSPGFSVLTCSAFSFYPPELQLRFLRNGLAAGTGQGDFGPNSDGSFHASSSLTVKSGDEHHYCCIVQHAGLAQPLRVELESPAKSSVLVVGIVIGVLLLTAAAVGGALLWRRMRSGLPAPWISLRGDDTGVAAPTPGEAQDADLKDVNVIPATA
T2 sequence (chain, as listed by the source L322A L323A, chain 2 of 2): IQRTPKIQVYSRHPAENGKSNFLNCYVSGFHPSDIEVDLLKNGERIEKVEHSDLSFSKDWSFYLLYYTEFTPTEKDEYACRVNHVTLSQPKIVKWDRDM
T3 sequence (P55899 24-365 limits assumed, chain 1 of 2): as the sequence (P55899 24-365 L343A/L344A, chain 1 of 2) above, with A320L, A321L counted along it
T3 sequence (P61769 21-119 limits assumed, chain 2 of 2): as the sequence (chain, as listed by the source L322A L323A, chain 2 of 2) above

B1: OA-Fc-ABDEG-Alb23 (Fc fusion)
chain 1: DKTHTCPPCPAPELLGGPSVFLFPPKPKDTLYITREPEVTCVVVDVSHEDPEVKFNWYVDGVEVHNAKTKPREEQYNSTYRVVSVLTVLHQDWLNGKEYKCKVSNKALPAPIEKTISKAKGQPREPQVYTLPPSRDELTKNQVSLWCLVKGFYPSDIAVEWESNGQPENNYKTTPPVLDSDGSFFLYSKLTVDKSRWQQGNVFSCSVMHEALKFHYTQKSLSLSPGGGGGSGGGGSGGGGSGGGGSEVQLLESGGGLVQPGGSLRLSCAASGFTFRSFGMSWVRQAPGKGPEWVSSISGSGSDTLYADSVKGRFTISRDNSKNTLYLQMNSLRPEDTAVYYCTIGGSLSRSSQGTLVTVSS
chain 2: DKTHTCPPCPAPELLGGPSVFLFPPKPKDTLYITREPEVTCVVVDVSHEDPEVKFNWYVDGVEVHNAKTKPREEQYNSTYRVVSVLTVLHQDWLNGKEYKCKVSNKALPAPIEKTISKAKGQPREPQVYTLPPSRDELTKNQVSLSCAVKGFYPSDIAVEWESNGQPENNYKTTPPVLDSDGSFFLVSKLTVDKSRWQQGNVFSCSVMHEALKFHYTQKSLSLSPG
notes: also called OA-Fc-ABDEG-20GS-Alb23; ABDEG-20GS-Alb23
Regarding B1, the Kd (in general, the constant that tells how readily two partners part at equilibrium) in the experiment with human serum albumin [1] is 147 nM; with human serum albumin [2] it was 66.5 nM; with human serum albumin [3], 66.5 nM; in the experiment with human serum albumin [4] it was 147 nM. Also, the koff (in general, the first-order rate constant of dissociation) with human serum albumin [1] turned out to be 0.00336 s⁻¹; in the experiment with human serum albumin [2], 0.00186 s⁻¹; with human serum albumin [3] it was 0.00186 s⁻¹; with human serum albumin [4] it was 0.00336 s⁻¹. The kon – broadly, a measure of how fast the partners come together – in the experiment with human serum albumin [1] came to 22900 M⁻¹ s⁻¹; with human serum albumin [3] it was 27900 M⁻¹ s⁻¹; with human serum albumin [4], 22900 M⁻¹ s⁻¹; with human serum albumin [6], 27900 M⁻¹ s⁻¹. Moreover, the IC50 – broadly, the point on the concentration scale where inhibition reaches its midpoint – in [5] was determined as 6.4 nM; in [7] it was 11.5 nM. Moreover, the “% max occupancy” value in experiment [7] was 67.9%.

B2: efgartigimod (human IgG1 Fc fragment with ABDEG mutations) (other)
chain: DKTHTCPPCPAPELLGGPSVFLFPPKPKDTLYITREPEVTCVVVDVSHEDPEVKFNWYVDGVEVHNAKTKPREEQYNSTYRVVSVLTVLHQDWLNGKEYKCKVSNKALPAPIEKTISKAKGQPREPQVYTLPPSRDELTKNQVSLTCLVKGFYPSDIAVEWESNGQPENNYKTTPPVLDSDGSFFLYSKLTVDKSRWQQGNVFSCSVMHEALKFHYTQKSLSLSPG
notes: residues 1-226 (my count) are the Fc part; also called ARGX-113; efgartigimod alfa
Take B2: the IC50 amounted to 2.9 nM in experiment [8], 6.8 nM in experiment [5], 4.8 nM in experiment [9] and 16.1 nM in [7]. Further, the “% max occupancy” value in experiment [9] was 56.8%; in [7], 57.7%.

B3: TA-Fc-ABDEG-Alb23 (Fc fusion)
chain: DKTHTCPPCPAPELLGGPSVFLFPPKPKDTLYITREPEVTCVVVDVSHEDPEVKFNWYVDGVEVHNAKTKPREEQYNSTYRVVSVLTVLHQDWLNGKEYKCKVSNKALPAPIEKTISKAKGQPREPQVYTLPPSRDELTKNQVSLTCLVKGFYPSDIAVEWESNGQPENNYKTTPPVLDSDGSFFLYSKLTVDKSRWQQGNVFSCSVMHEALKFHYTQKSLSLSPGGGGGSGGGGSGGGGSGGGGSEVQLLESGGGLVQPGGSLRLSCAASGFTFRSFGMSWVRQAPGKGPEWVSSISGSGSDTLYADSVKGRFTISRDNSKNTLYLQMNSLRPEDTAVYYCTIGGSLSRSSQGTLVTVSS
notes: also called TA-ABDEG-Alb23
In the case of B3, the results for the IC50 in [5] and in [7] were 20.2 nM and 33 nM, respectively. Also, the “% max occupancy” value in experiment [7] is 63.8%.

B4: TA-Alb23-Fc-ABDEG (Fc fusion)
chain: EVQLLESGGGLVQPGGSLRLSCAASGFTFRSFGMSWVRQAPGKGPEWVSSISGSGSDTLYADSVKGRFTISRDNSKNTLYLQMNSLRPEDTAVYYCTIGGSLSRSSQGTLVTVSSDKTHTCPPCPAPELLGGPSVFLFPPKPKDTLYITREPEVTCVVVDVSHEDPEVKFNWYVDGVEVHNAKTKPREEQYNSTYRVVSVLTVLHQDWLNGKEYKCKVSNKALPAPIEKTISKAKGQPREPQVYTLPPSRDELTKNQVSLTCLVKGFYPSDIAVEWESNGQPENNYKTTPPVLDSDGSFFLYSKLTVDKSRWQQGNVFSCSVMHEALKFHYTQKSLSLSPG
notes: Alb23 VHH on the N-terminus of both Fc domains; also called two-armed N-terminal anti-HSA-Fc-ABDEG
In experiment [5], B4 had an IC50 of 19.9 nM. Besides, in experiment [7], the “% max occupancy” value stood at 43.4% and the IC50 amounted to 78.3 nM.

B5: Alb23 F32A VHH fragment (VHH)
VHH: EVQLLESGGGLVQPGGSLRLSCAASGFTFRSAGMSWVRQAPGKGPEWVSSISGSGSDTLYADSVKGRFTISRDNSKNTLYLQMNSLRPEDTAVYYCTIGGSLSRSSQGTLVTVSS
notes: also called Alb23-SM
Regarding B5, in the experiment with human serum albumin [10], the “fold lower affinity against parental Alb23 VHH” value was around 300 fold.

B6: TA-Fc-ABDEG-2H11 (2H11 parental fused at the C-terminus of Fc-ABDEG) (Fc fusion)
chain: DKTHTCPPCPAPELLGGPSVFLFPPKPKDTLYITREPEVTCVVVDVSHEDPEVKFNWYVDGVEVHNAKTKPREEQYNSTYRVVSVLTVLHQDWLNGKEYKCKVSNKALPAPIEKTISKAKGQPREPQVYTLPPSRDELTKNQVSLTCLVKGFYPSDIAVEWESNGQPENNYKTTPPVLDSDGSFFLYSKLTVDKSRWQQGNVFSCSVMHEALKFHYTQKSLSLSPGGGGGSGGGGSGGGGSGGGGSELQVVESGGGLVQAGGSLRLSCAASGRTFRSNTMGWFRQAPGKEREFVAAITWSGGTTYYADSVKGRFAISGDNAKNTVYLQMNSLKPEDTAVYYCAAEGPKWEPWNGIYHPADFGSWGQGTQVTVSS
On to B6, for which, in the experiment with human serum albumin [11], the “R0 pH5.5” value came out at 351 RU and the koff was found to be 0.00016 s⁻¹. In the experiment with human serum albumin [12], the “R0 5.5/7.4” value stood at 3. In the experiment with human serum albumin [13], the “R0 pH7.4” value turned out to be 115 RU and the koff was 0.00072 s⁻¹.

B7: TA-Fc-ABDEG-2H11-v12 (Fc fusion)
chain: DKTHTCPPCPAPELLGGPSVFLFPPKPKDTLYITREPEVTCVVVDVSHEDPEVKFNWYVDGVEVHNAKTKPREEQYNSTYRVVSVLTVLHQDWLNGKEYKCKVSNKALPAPIEKTISKAKGQPREPQVYTLPPSRDELTKNQVSLTCLVKGFYPSDIAVEWESNGQPENNYKTTPPVLDSDGSFFLYSKLTVDKSRWQQGNVFSCSVMHEALKFHYTQKSLSLSPGGGGGSGGGGSGGGGSGGGGSELQVVESGGGLVQAGGSLRLSCAASGRTFRSNTMGWFRQAPGKEREFVAAITWSGGTTYYADSVKGRFAISGDNAKNTVYLQMNSLKPEDTAVYYCAAEGPKWEPWNGIAHPADFGSWGQGTQVTVSS
notes: Scaffold as for m24
Take B7: in the experiment with human serum albumin [11], the “R0 pH5.5” value turned out to be 93.9 RU and the koff was determined as 9.72e-05 s⁻¹. Moreover, the “R0 5.5/7.4” value with human serum albumin [12] turned out to be 14.9. In the experiment with human serum albumin [13], the “R0 pH7.4” value was 6.32 RU and the koff came out at 0.0012 s⁻¹.

B8: TA-Fc-ABDEG-2H11-v3 (Fc fusion)
chain: DKTHTCPPCPAPELLGGPSVFLFPPKPKDTLYITREPEVTCVVVDVSHEDPEVKFNWYVDGVEVHNAKTKPREEQYNSTYRVVSVLTVLHQDWLNGKEYKCKVSNKALPAPIEKTISKAKGQPREPQVYTLPPSRDELTKNQVSLTCLVKGFYPSDIAVEWESNGQPENNYKTTPPVLDSDGSFFLYSKLTVDKSRWQQGNVFSCSVMHEALKFHYTQKSLSLSPGGGGGSGGGGSGGGGSGGGGSELQVVESGGGLVQAGGSLRLSCAASGRTFRSNTMGWFRQAPGKEREFVAAITWSGGTTYYADSVKGRFAISGDNAKNTVYLQMNSLKPEDTAVYYCAAEGAKWEPWNGIYHPADFGSWGQGTQVTVSS
For the molecule B8, in the experiment with human serum albumin [11], the “R0 pH5.5” value worked out at 164 RU and the koff was 0.000135 s⁻¹. In addition, the “R0 5.5/7.4” value with human serum albumin [12] turned out to be 19.9. Besides, in the experiment with human serum albumin [13], the “R0 pH7.4” value came to 8.24 RU and the koff was found to be 0.0029 s⁻¹.

B9: TA-Fc-ABDEG-2H11-v16 (Fc fusion)
chain: DKTHTCPPCPAPELLGGPSVFLFPPKPKDTLYITREPEVTCVVVDVSHEDPEVKFNWYVDGVEVHNAKTKPREEQYNSTYRVVSVLTVLHQDWLNGKEYKCKVSNKALPAPIEKTISKAKGQPREPQVYTLPPSRDELTKNQVSLTCLVKGFYPSDIAVEWESNGQPENNYKTTPPVLDSDGSFFLYSKLTVDKSRWQQGNVFSCSVMHEALKFHYTQKSLSLSPGGGGGSGGGGSGGGGSGGGGSELQVVESGGGLVQAGGSLRLSCAASGRTFRSNTMGWFRQAPGKEREFVAAITWSGGTTYYADSVKGRFAISGDNAKNTVYLQMNSLKPEDTAVYYCAAEGPKWEPWNGIYHPADAGSWGQGTQVTVSS
notes: Scaffold as for m24
On to B9, for which, in the experiment with human serum albumin [11], the “R0 pH5.5” value was determined as 8.91 RU and the koff came to 0.00301 s⁻¹. In addition, the “R0 5.5/7.4” value with human serum albumin [12] was determined as 16. In the experiment with human serum albumin [13], the “R0 pH7.4” value was 0.571 RU and the koff turned out to be 0.00193 s⁻¹.

B10: TA-Fc-ABDEG-2H11-v15 (Fc fusion)
chain: DKTHTCPPCPAPELLGGPSVFLFPPKPKDTLYITREPEVTCVVVDVSHEDPEVKFNWYVDGVEVHNAKTKPREEQYNSTYRVVSVLTVLHQDWLNGKEYKCKVSNKALPAPIEKTISKAKGQPREPQVYTLPPSRDELTKNQVSLTCLVKGFYPSDIAVEWESNGQPENNYKTTPPVLDSDGSFFLYSKLTVDKSRWQQGNVFSCSVMHEALKFHYTQKSLSLSPGGGGGSGGGGSGGGGSGGGGSELQVVESGGGLVQAGGSLRLSCAASGRTFRSNTMGWFRQAPGKEREFVAAITWSGGTTYYADSVKGRFAISGDNAKNTVYLQMNSLKPEDTAVYYCAAEGPKWEPWNGIYHPAAFGSWGQGTQVTVSS
Turning to B10, in the experiment with human serum albumin [11], the “R0 pH5.5” value is 235 RU and the koff is 0.00174 s⁻¹. The “R0 5.5/7.4” value with human serum albumin [12] was determined as 370. In addition, in the experiment with human serum albumin [13], the “R0 pH7.4” value stood at 0.635 RU and the koff was determined as 0.0025 s⁻¹.

Values taken from patent publication US20250382388A1 (ARGENX, published 2025).
